Source: US20240374729A1 (published 2024)

T1: NY-ESO-1 peptide on HLA-A*02:01 (human)
T1 peptide: SLLMWITQC

T2: PRAME peptide on HLA-A*02:02 (human)
T2 peptide: SLLQHLIGL

T3: PRAME peptide on HLA-A*02:09 (human)
T3 peptide: SLLQHLIGL

T4: PRAME peptide on HLA-A*02:04 (human)
T4 peptide: SLLQHLIGL

T5: PRAME peptide on HLA-A*02:01 (human)
T5 peptide: SLLQHLIGL


Legend:
[1] = target: T1, NY-ESO-1 peptide on HLA-A*02:01; assay: cytokine release
[2] = target: T2, PRAME peptide on HLA-A*02:02; assay: cytokine release
[3] = target: T3, PRAME peptide on HLA-A*02:09; assay: cytokine release
[4] = target: T4, PRAME peptide on HLA-A*02:04; assay: cytokine release
[5] = target: T5, PRAME peptide on HLA-A*02:01; assay: killing

Binder	binding result [1]	binding result [2]	binding result [3]	binding result [4]	binding result [5]
NY-ESO-1/LAGE-1 specific TCR of SEQ ID NOs 41 and 42 (TCR, V domains shown) Valpha: QKEVEQNSGPLSVPEGAIASLNCTYSDRGSQSFFWYRQYSGKSPELIMFIYSNGDKEDGRFTAQLNKASQYVSLLIRDSQPSDSATYLCAADDKIIFGKGTRLHILP Vbeta: DAGVIQSPRHEVTEMGQEVTLRCKPISGHDYLFWYRQTMMRGLELLIYFNNNVPIDDSGMPEDRFSAKMPNASFSTLKIQPSEPRDSAVYFCASSRGGSGYTFGSGTRLTVV	recognises	–	–	–	–
T23.8-2.1-027-004 (TCR, V domains shown) Valpha: GQQLNQSPQSMFIQEGEDVSMNCTSSSIFNTWLWYKQDPGEGPVLLIALYKAGELTSNGRLTAQFGITRKDSFLNISASIPSDVGIYFCAGLADYGGSQGNLIFGKGTKLSVKP Vbeta: DSGVTQTPKHLITATGQRVTLRCSPRSGDLSVYWYQQSLDQGLQFLIQYYNGEERAKGNILERFSAQQFPDLHSELNLSSLELGDSALYFCASSVWASGGYEQYFGPGTRLTVT	–	recognises	recognises	recognises	recognises
